Source: PMC6473903, “Isoform-Specific NO Synthesis by Arabidopsis thaliana Nitrate Reductase” (Plants, 2019)
Where a chain is given by its changes, count along the chain named. Numbers in names are those of the source. Values belong to the molecule of their own block, whether it stands above or below them.

Columns and labels:
[1] = molecular target: T1, re-constituted (composite) NIA1 (Arabidopsis thaliana, UniProt P11832); assay: NO analyzer, inhibition of nitrite reduction (NO production); assay type: biochemical
T1 construct: both from E. coli, IMAC purified; with Nitrate reductase [NADH]
T1 sequence (P11832 1-627): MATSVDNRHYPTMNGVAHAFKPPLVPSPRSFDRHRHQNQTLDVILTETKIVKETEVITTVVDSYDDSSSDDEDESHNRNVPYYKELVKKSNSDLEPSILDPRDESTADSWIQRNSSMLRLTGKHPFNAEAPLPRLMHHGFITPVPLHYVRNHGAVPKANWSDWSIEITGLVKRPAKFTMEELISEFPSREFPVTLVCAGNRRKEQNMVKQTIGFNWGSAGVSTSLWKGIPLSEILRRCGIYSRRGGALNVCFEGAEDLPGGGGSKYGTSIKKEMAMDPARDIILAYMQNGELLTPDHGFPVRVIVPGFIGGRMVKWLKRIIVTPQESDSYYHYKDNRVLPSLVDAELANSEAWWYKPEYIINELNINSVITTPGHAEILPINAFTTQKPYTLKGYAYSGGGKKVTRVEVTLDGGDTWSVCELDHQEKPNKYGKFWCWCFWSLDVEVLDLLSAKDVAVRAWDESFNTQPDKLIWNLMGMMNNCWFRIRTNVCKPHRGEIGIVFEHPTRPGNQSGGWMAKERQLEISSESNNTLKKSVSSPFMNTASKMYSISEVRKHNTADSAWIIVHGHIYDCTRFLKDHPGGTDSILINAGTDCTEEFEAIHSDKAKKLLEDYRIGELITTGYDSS
T1 sequence (P11832 628-917 partner): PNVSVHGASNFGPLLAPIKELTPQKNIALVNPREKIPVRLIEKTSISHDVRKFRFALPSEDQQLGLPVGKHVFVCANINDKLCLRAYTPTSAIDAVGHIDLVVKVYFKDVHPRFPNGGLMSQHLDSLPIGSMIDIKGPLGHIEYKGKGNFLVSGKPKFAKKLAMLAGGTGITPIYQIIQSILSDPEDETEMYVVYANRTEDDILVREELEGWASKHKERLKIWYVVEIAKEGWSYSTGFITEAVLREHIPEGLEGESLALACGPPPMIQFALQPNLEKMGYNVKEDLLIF

[2] = molecular target: T2, re-constituted (composite) NIA2 (Arabidopsis thaliana, UniProt P11035); assay: as above; assay type: biochemical
T2 construct: both from E. coli, IMAC purified; with Nitrate reductase [NADH]
T2 sequence (P11035 1-625): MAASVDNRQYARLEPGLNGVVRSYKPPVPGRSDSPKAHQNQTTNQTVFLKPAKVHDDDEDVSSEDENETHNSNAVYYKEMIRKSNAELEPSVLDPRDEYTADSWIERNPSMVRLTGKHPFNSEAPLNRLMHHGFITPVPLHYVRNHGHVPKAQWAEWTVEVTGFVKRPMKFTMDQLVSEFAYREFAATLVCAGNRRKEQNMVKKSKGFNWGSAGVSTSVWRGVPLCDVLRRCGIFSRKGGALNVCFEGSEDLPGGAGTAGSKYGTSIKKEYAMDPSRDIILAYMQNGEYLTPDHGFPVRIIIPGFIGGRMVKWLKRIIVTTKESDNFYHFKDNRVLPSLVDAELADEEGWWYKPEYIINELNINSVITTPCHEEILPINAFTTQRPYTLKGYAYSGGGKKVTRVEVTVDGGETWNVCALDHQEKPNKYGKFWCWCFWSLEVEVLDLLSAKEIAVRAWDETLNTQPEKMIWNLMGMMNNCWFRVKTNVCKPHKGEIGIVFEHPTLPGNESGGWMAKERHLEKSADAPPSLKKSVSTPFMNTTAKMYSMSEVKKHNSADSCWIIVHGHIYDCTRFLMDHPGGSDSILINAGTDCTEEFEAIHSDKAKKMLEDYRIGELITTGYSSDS
T2 sequence (P11035 626-917 partner): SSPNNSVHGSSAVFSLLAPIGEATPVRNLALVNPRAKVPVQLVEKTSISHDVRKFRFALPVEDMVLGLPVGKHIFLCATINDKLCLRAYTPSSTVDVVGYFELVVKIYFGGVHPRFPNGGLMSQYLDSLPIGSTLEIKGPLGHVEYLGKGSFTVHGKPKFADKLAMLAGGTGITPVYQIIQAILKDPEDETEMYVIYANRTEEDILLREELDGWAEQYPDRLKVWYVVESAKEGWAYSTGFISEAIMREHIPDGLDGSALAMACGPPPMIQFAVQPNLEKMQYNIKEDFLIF

[3] = molecular target: T3, Arabidopsis thaliana NIA2-Mo-heme fragment (residues 1-625) (Arabidopsis thaliana) (UniProt P11035)
T3 sequence: T2 sequence (P11035 1-625)

[4] = molecular target: T4, Arabidopsis thaliana NIA1-Mo-heme fragment (residues 1-627) (Arabidopsis thaliana) (UniProt P11832)
T4 sequence: T1 sequence (P11832 1-627)

[5] = substrate: O=NO; assay: BV:nitrite steady-state assay, A595; assay type: biochemical, Arabidopsis thaliana; conditions: reduced benzyl viologen as electron donor, pH 7.5, 22-25 °C, anaerobic
Excerpt: BV:nitrite steady-state assay, A595 on NIA2-Mo-heme

[6] = substrate: O=NO; assay: BV:nitrite steady-state assay, A595; assay type: biochemical, Arabidopsis thaliana; conditions: reduced benzyl viologen as electron donor, pH 7.5, 22-25 °C, anaerobic; remark: listed apart in the source
Excerpt: BV:nitrite steady-state assay, A595 on NIA1-Mo-heme

[7] = substrate: O=NO; assay: BV:nitrite steady-state assay, A595; assay type: biochemical, Arabidopsis thaliana; conditions: reduced benzyl viologen as electron donor, pH 7.5, 22-25 °C, anaerobic; remark: listed apart in the source
Excerpt: BV:nitrite steady-state assay, A595 on NIA1-Mo

IC50 [1]: 12 ± 1.7 µM | IC50 [2]: 36 ± 2.7 µM
Molecule: O=[N+]([O-])O [nitrate]

apparent kcat of the steady-state NADH:nitrate assay of re-constituted NIA2 (100 nM NIA2-Mo-heme + 5 µM NIA2-FAD, ratio 1:50) [3]: 13.4 s⁻¹
B1: Arabidopsis thaliana NIA2-FAD fragment (residues 626-917) (domain or fragment)
chain: T2 sequence (P11035 626-917 partner)

apparent kcat of the steady-state NADH:nitrate assay of re-constituted NIA1 (100 nM NIA1-Mo-heme + 5 µM NIA1-FAD, ratio 1:50) [4]: 9.6 s⁻¹
B2: Arabidopsis thaliana NIA1-FAD fragment (residues 628-917) (domain or fragment)
chain: T1 sequence (P11832 628-917 partner)

B3: NIA2-Mo-heme (Arabidopsis thaliana) (protein)
chain: T2 sequence (P11035 1-625)
notes: N-terminal Moco + hinge 1 + heme domain fragment, residues 1-625; E. coli TP1004, Ni-NTA and SEC purified
Km [5]: 13.7 ± 3.3 µM | kcat [5]: 1.8 ± 0.3 s⁻¹

B4: NIA2-Mo-heme (Arabidopsis thaliana; H600A) (protein)
chain: T2 sequence (P11035 1-625) with H600A
notes: as for B3
Km ([5]; heme-coordinating His mutated): 10.3 ± 1.2 µM | kcat ([5]; heme-coordinating His mutated): 1.2 ± 0.02 s⁻¹

B5: NIA1-Mo-heme (Arabidopsis thaliana) (protein)
chain: T1 sequence (P11832 1-627)
notes: N-terminal Moco + hinge 1 + heme domain fragment, residues 1-627; pQE80L, E. coli, Ni-NTA (IMAC) and SEC purified
Km [6]: 35.5 ± 2.7 µM | kcat [6]: 19.8 ± 4.8 s⁻¹

B6: NIA1-Mo (Arabidopsis thaliana) (protein)
chain: MATSVDNRHYPTMNGVAHAFKPPLVPSPRSFDRHRHQNQTLDVILTETKIVKETEVITTVVDSYDDSSSDDEDESHNRNVPYYKELVKKSNSDLEPSILDPRDESTADSWIQRNSSMLRLTGKHPFNAEAPLPRLMHHGFITPVPLHYVRNHGAVPKANWSDWSIEITGLVKRPAKFTMEELISEFPSREFPVTLVCAGNRRKEQNMVKQTIGFNWGSAGVSTSLWKGIPLSEILRRCGIYSRRGGALNVCFEGAEDLPGGGGSKYGTSIKKEMAMDPARDIILAYMQNGELLTPDHGFPVRVIVPGFIGGRMVKWLKRIIVTPQESDSYYHYKDNRVLPSLVDAELANSEAWWYKPEYIINELNINSVITTPGHAEILPINAFTTQKPYTLKGYAYSGGGKKVTRVEVTLDGGDTWSVCELDHQEKPNKYGKFWCWCFWSLDVEVLDLLSAKDVAVRAWDESFNTQPDKLIWNLMGMMNNCWFRIRT
notes: Moco domain only, residues 1-488; His-tagged, pQE80L, E. coli TP1004
Km [7]: 35.3 ± 3.2 µM | kcat [7]: 138 ± 2.5 s⁻¹
